Assay results taken from patent US20210087286A1 (Amgen, published 2021).
Where a chain is given by its changes, count along the chain named. One block for each binder: values may come before it.

Tests used:
human GIPR = target: T1, human GIPR (human, UniProt P48546 22-466); experiment: cell-based or functional assay
T1 sequence: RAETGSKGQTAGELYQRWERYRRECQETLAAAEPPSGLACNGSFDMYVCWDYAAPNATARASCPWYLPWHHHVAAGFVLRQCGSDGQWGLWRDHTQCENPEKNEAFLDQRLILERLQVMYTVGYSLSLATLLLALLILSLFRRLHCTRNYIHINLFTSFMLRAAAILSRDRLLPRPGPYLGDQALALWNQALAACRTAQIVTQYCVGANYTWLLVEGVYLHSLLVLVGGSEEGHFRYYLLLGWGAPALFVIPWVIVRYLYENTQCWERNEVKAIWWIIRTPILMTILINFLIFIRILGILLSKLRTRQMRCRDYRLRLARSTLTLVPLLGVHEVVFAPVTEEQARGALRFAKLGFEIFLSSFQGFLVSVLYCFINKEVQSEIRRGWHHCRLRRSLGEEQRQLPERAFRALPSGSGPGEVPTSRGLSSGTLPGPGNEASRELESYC

huGIPR ECD = target: T2, huGIPR ECD (human, UniProt P48546 21-129, limits assumed); experiment: SPR (Biacore T200), mAb captured via goat anti-huFc, 200 nM huGIPR ECD analyte
T2 construct: Soluble analyte of the Biacore assay; also called human GIPR extracellular domain
T2 sequence: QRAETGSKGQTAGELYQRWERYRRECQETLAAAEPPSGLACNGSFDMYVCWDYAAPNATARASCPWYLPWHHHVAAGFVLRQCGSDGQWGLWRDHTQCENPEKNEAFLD
Procedure: Immobilization of Goat-anti-huFc antibody to a S-CM5 sensor chip surface was performed according to manufacturer's instructions. The Biacore instrument running buffer is 0.005% P20/PBS 1×, pH7.4, no calcium chloride, no magnesium chloride. Briefly, carboxyl groups on the sensor chip surfaces were activated by injecting 60 μL of a mixture containing 0.2 M N-ethyl-N′-(dimethylaminopropyl) carbodiimide (EDC) and 0.05 M N-hydroxysuccinimide (NHS). Goat-anti-huFc antibody was diluted in 10 mM sodium acetate, pH 4.0 at 20 μg/ml and injected over the activated chip surface at 30 uL/min for 6 minutes. Excess reactive groups on the surfaces were deactivated by injecting 60 μL of 1 M ethanolamine. Final immobilized level was ˜8000 resonance units (RU).
Binding assays were carried out on the immobilized goat anti-huFc antibody surface by Biacore T200. The experiment was performed at 25° C. The instrument running buffer was 0.005% P20/PBS. The goat anti-huFc capture antibody was covalently attached to the sensor chip surface via standard amine coupling to flow cells channel 1-4. The anti-huGIPR antibodies were diluted in sample buffer (0.1 mg/ml BSA, 0.005% P20, PBS) to ˜10 nM then captured to flow cells channel 2, 3, 4. Flow cell channel 1 was as a blank reference surface without injection of anti-huGIPR antibody. The captured antibody response range was ˜250 RU. Then 200 nM huGIPR ECD was injected over the goat anti-huFc antibody captured anti-huGIPR antibody surfaces at flow rate 50 ul/min for 3 minutes. After a 10 minutes dissociation, each surface was regenerated by injecting 10 mM Glycine, pH 1.5 for 30 seconds twice.

B2: 2G10.323 (antibody, human IgG1, kappa, N297G, V domains shown)
VH: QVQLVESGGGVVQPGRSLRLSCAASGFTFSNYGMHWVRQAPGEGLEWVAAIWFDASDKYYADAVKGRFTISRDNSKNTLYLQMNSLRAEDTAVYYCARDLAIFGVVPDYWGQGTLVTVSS
VL: EIVMTQSPATLSVSPGERATLSCRASQSVHRHLAWYQQKPGQAPRLLIYEAATRATGIPARFSGSGSGTEFTLTISSLQSEDFAVYYCQQYQNWPLTFGGGTKVEIKR
- cAMP IC50 (human GIPR): 17.4 nM
- koff (huGIPR ECD): < 5e-05 s⁻¹

B5: 2G10.308 (antibody, human IgG1, kappa, N297G, V domains shown)
VH: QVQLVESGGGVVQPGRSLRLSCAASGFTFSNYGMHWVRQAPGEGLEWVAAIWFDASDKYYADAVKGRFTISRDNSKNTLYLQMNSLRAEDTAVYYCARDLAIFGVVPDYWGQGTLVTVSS
VL: B2 VL with H30F, R31S, N93Q
notes: also called SS-26185
- cAMP IC50 (human GIPR): 18.3 nM
- koff (huGIPR ECD): < 5e-05 s⁻¹

B9: 2G10.301 (antibody, human IgG1, kappa, N297G, V domains shown)
VH: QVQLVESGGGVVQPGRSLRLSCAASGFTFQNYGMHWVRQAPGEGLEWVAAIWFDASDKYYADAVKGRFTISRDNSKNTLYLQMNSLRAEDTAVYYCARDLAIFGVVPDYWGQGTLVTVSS
VL: B2 VL with H30F, R31S
notes: also called SS-26178
- cAMP IC50 (human GIPR): 17.6 nM
- koff (huGIPR ECD): 7e-05 s⁻¹

B13: 2G10.315 (antibody, human IgG1, kappa, N297G, V domains shown)
VH: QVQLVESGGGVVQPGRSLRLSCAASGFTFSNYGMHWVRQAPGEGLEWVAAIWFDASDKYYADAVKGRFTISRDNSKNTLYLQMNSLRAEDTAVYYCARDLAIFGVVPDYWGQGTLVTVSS
VL: B2 VL with H30L, R31T
notes: also called SS-26192
- cAMP IC50 (human GIPR): 22 nM
- koff (huGIPR ECD): < 5e-05 s⁻¹

B15: 2G10.309 (antibody, human IgG1, kappa, N297G, V domains shown)
VH: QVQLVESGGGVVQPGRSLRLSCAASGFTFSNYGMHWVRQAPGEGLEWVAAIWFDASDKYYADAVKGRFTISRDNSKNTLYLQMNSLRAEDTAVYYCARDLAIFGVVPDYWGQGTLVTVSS
VL: B2 VL with H30E
notes: also called SS-26186
- cAMP IC50 (human GIPR): 29.5 nM
- koff (huGIPR ECD): < 5e-05 s⁻¹

B17: 2G10.303 (antibody, human IgG1, kappa, N297G, V domains shown)
VH: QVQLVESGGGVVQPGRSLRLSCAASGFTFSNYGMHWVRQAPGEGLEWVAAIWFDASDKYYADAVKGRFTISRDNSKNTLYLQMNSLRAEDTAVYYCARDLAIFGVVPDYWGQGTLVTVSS
VL: B2 VL with H30D
notes: also called SS-26180
- cAMP IC50 (human GIPR): 23.1 nM
- koff (huGIPR ECD): 7e-05 s⁻¹

B18: 2G10.307 (antibody, human IgG1, kappa, N297G, V domains shown)
VH: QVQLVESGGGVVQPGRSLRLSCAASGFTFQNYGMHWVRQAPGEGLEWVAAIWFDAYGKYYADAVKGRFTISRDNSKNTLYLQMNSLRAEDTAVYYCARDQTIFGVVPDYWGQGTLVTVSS
VL: B2 VL with H30D, Q92N, N93Q
notes: also called SS-26184
- cAMP IC50 (human GIPR): 17.4 nM
- koff (huGIPR ECD): 6e-05 s⁻¹

B19: 2G10.319 (antibody, human IgG1, kappa, N297G, V domains shown)
VH: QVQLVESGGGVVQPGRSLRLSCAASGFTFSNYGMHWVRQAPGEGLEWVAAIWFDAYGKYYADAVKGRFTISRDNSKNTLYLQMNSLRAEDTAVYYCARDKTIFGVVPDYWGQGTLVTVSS
VL: B2 VL with H30F
- cAMP IC50 (human GIPR): 7.9 nM
- koff (huGIPR ECD): 6e-05 s⁻¹

B22: 2G10.302 (antibody, human IgG1, kappa, N297G, V domains shown)
VH: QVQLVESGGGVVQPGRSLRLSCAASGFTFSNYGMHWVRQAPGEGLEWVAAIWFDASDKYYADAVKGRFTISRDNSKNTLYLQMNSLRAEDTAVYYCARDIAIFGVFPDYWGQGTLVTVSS
VL: B2 VL with H30F, R31E, Q92N
notes: also called SS-26179
- cAMP IC50 (human GIPR): 19.9 nM
- koff (huGIPR ECD): < 5e-05 s⁻¹

The remaining lines, values ahead:

- cAMP IC50 (human GIPR): 24.4 nM
- koff (huGIPR ECD): 7e-05 s⁻¹
B1: 2G10.328 (antibody, human IgG1, kappa, N297G, V domains shown)
VH: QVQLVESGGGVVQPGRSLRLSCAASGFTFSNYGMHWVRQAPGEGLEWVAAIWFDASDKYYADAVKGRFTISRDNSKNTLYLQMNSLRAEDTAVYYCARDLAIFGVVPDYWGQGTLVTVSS
VL: B2 VL with H30S, R31E

- cAMP IC50 (human GIPR): 26.6 nM
- koff (huGIPR ECD): 6e-05 s⁻¹
B3: 2G10.326 (antibody, human IgG1, kappa, N297G, V domains shown)
VH: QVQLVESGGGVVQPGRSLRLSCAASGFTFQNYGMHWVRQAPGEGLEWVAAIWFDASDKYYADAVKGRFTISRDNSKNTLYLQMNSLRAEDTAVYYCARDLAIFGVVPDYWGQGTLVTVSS
VL: B2 VL with H30L, R31S, N93Q

- cAMP IC50 (human GIPR): 13.7 nM
- koff (huGIPR ECD): 6e-05 s⁻¹
B4: 2G10.334 (antibody, human IgG1, kappa, N297G, V domains shown)
VH: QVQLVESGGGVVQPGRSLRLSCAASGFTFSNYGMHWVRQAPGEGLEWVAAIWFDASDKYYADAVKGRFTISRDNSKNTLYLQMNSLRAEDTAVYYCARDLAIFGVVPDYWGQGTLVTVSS
VL: B2 VL with H30N, R31L, H32N, E50Q, Q92N, N93Q
notes: also called SS-26211

- cAMP IC50 (human GIPR): 22.6 nM
- koff (huGIPR ECD): 7e-05 s⁻¹
B6: 2G10.339 (antibody, human IgG1, kappa, N297G, V domains shown)
VH: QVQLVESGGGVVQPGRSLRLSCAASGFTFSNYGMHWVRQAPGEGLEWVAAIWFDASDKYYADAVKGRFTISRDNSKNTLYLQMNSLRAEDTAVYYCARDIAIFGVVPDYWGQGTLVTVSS
VL: B2 VL with H30F, R31Q, H32N, E50Q, Q92N, N93Q

- cAMP IC50 (human GIPR): 18.9 nM
- koff (huGIPR ECD): 8e-05 s⁻¹
B7: 2G10.345 (antibody, human IgG1, kappa, N297G, V domains shown)
VH: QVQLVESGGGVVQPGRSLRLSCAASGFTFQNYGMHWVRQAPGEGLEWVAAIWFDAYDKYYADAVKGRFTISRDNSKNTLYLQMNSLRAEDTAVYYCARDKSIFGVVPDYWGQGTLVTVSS
VL: B2 VL with H30N, Q92N

- cAMP IC50 (human GIPR): 11.6 nM
- koff (huGIPR ECD): < 5e-05 s⁻¹
B8: 2G10.342 (antibody, human IgG1, kappa, N297G, V domains shown)
VH: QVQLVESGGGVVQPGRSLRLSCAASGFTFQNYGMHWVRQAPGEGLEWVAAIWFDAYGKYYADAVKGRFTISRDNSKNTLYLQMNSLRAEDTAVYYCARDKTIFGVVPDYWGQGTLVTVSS
VL: B2 VL with H30E, N93Q

- cAMP IC50 (human GIPR): 21.9 nM
- koff (huGIPR ECD): 6e-05 s⁻¹
B10: 2G10.344 (antibody, human IgG1, kappa, N297G, V domains shown)
VH: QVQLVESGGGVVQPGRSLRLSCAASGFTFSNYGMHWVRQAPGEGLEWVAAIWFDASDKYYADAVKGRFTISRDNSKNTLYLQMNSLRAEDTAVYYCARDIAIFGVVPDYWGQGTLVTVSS
VL: B2 VL with H30S, R31S, N93Q

- cAMP IC50 (human GIPR): 23.4 nM
- koff (huGIPR ECD): 8e-05 s⁻¹
B11: 2G10.338 (antibody, human IgG1, kappa, N297G, V domains shown)
VH: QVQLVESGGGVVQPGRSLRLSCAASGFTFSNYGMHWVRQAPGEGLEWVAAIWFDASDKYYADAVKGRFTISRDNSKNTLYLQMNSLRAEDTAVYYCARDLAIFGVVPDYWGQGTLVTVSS
VL: B2 VL with R31H, Q92N, N93Q

- cAMP IC50 (human GIPR): 19.7 nM
- koff (huGIPR ECD): 5e-05 s⁻¹
B12: 2G10.331 (antibody, human IgG1, kappa, N297G, V domains shown)
VH: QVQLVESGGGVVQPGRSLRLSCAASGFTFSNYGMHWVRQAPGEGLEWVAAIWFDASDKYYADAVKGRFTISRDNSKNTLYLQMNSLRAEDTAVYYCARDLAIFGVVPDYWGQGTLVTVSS
VL: B2 VL with H30D, R31L
notes: also called SS-26208

- cAMP IC50 (human GIPR): 26.2 nM
- koff (huGIPR ECD): < 5e-05 s⁻¹
B14: 2G10.325 (antibody, human IgG1, kappa, N297G, V domains shown)
VH: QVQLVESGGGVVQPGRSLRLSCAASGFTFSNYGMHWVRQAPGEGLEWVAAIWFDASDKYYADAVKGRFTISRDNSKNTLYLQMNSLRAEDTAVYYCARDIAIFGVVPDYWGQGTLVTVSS
VL: B2 VL with H30F, R31E, Q92N, N93Q

- cAMP IC50 (human GIPR): 19.3 nM
- koff (huGIPR ECD): < 5e-05 s⁻¹
B16: 2G10.327 (antibody, human IgG1, kappa, N297G, V domains shown)
VH: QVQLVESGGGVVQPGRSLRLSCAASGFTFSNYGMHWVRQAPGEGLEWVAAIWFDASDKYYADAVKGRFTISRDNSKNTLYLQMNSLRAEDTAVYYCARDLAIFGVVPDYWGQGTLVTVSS
VL: B2 VL with R31S, Q92N, N93Q

- cAMP IC50 (human GIPR): 18.6 nM
- koff (huGIPR ECD): < 5e-05 s⁻¹
B20: 2G10.330 (antibody, human IgG1, kappa, N297G, V domains shown)
VH: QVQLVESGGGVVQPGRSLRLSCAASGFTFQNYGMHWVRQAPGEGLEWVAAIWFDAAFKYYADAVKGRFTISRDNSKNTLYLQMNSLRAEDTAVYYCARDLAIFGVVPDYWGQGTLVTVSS
VL: B2 VL with H30D, R31Q, E50Q
notes: also called SS-26207

- cAMP IC50 (human GIPR): 32.5 nM
- koff (huGIPR ECD): < 5e-05 s⁻¹
B21: 2G10.337 (antibody, human IgG1, kappa, N297G, V domains shown)
VH: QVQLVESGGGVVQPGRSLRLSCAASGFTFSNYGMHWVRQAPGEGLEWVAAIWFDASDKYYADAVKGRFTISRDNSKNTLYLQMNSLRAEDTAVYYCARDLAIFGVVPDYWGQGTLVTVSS
VL: B2 VL with H30D, R31V, H32N, Q92N, N93Q
notes: also called SS-26214
